Consider 2 molecules from article PMC8687462 (bioRxiv, 2021).

Series [1] concerns the target HSPB6-nhpSer16 (UniProt O14558). Description: SEC-MALS. The following applies: scale: 14-3-3 chains per HSPB6 chain.
The target in series [2] is HSPB6-pSer16 (UniProt O14558). Description: SEC-MALS. As to conditions: scale: 14-3-3 chains per HSPB6 chain.
For series [3], the target named is HSPB6-nhpSer16 (UniProt O14558). As to the kind of experiment: AUC.
In series [4] the target is HSPB6-pSer16 (UniProt O14558). As to the kind of experiment: AUC.
The series “SEC-MALS” concerns the molecule itself. As to the kind of experiment: SEC-MALS.

Sequence of HSPB6-pSer16 (O14558 whole entry): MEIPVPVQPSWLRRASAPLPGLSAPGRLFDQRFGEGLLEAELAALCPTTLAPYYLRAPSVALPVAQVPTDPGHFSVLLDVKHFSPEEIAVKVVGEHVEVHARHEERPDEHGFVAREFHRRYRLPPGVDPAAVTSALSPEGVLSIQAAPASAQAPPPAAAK

Turning to “14-3-3ζ (untagged, co-expressed with His-tagged HSPB6) (from UniProt P63104 1-230) (natural protein)”, the stoichiometry N with HSPB6-nhpSer16 [1] and in the series with HSPB6-pSer16 [2] was 1 in each case. Moreover, the Kd was 120 nM in the series with HSPB6-nhpSer16 [3] and 92 nM in the series with HSPB6-pSer16 [4].

B1: 14-3-3ζ S58E (natural protein)
chain: MDKNELVQKAKLAEQAERYDDMAACMKSVTEQGAELSNEERNLLSVAYKNVVGARRSEWRVVSSIEQKTEGAEKKQQMAREYREKIETELRDICNDVLSLLEKFLIPNASQAESKVFYLKMKGDYYRYLAEVAAGDDKKGIVDQSQQAYQEAFEISKKEMQPTHPIRLGLALNFSVFYYEILNSPEKACSLAKTAFDEAIAELDTLSEESYKDSTLIMQLLRDNLTLWTS
Regarding B1, in “SEC-MALS”, the “stoichiometry N” value turned out to be 2.
